These results are taken from publication PMC9458431, “2′-O-Methylation of the second transcribed nucleotide within the mRNA 5′ cap impacts the protein production level in a cell-specific manner and contributes to RNA immune evasion”.

What all share (settings): protein: recombinant
In series [1] the target is T1, eIF4E (murine) (Mus musculus, UniProt P63073 28-217). As to the kind of experiment: MST competition; vs m7Gp5OC3(5)FAM; as cap0(A); MST: 50 mM HEPES-KOH pH 7.2, 100 mM KCl, 0.5 mM EDTA, 0.05% Tween-20, 25 C, 50 nM eIF4E, 10 nM probe; pull-down: 20 mM Tris-HCl pH 7.4, 150 mM NaCl, 2 mM MgCl2, 2 mM DTT, 0.2% IGEPAL, 4 C.
T1 sequence (P63073 28-217): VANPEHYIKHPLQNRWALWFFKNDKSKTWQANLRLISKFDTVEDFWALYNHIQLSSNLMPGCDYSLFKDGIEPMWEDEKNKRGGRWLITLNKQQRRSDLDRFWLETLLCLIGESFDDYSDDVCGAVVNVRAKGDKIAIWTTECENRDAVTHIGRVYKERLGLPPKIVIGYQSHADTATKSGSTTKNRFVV
Series [2] concerns the target T1, eIF4E (murine). The series can be described thus: MST competition; vs 10 nM m7Gp5OC3(5)FAM; KD,app only in figure; MST: 50 mM HEPES-KOH pH 7.2, 100 mM KCl, 0.5 mM EDTA, 0.05% Tween-20, 25 C, 50 nM eIF4E, 10 nM probe; pull-down: 20 mM Tris-HCl pH 7.4, 150 mM NaCl, 2 mM MgCl2, 2 mM DTT, 0.2% IGEPAL, 4 C.
The target of series [3] is T1, eIF4E (murine). As to the kind of experiment: MST competition; vs m7Gp5OC3(5)FAM; not destabilized by m6A; MST: 50 mM HEPES-KOH pH 7.2, 100 mM KCl, 0.5 mM EDTA, 0.05% Tween-20, 25 C, 50 nM eIF4E, 10 nM probe; pull-down: 20 mM Tris-HCl pH 7.4, 150 mM NaCl, 2 mM MgCl2, 2 mM DTT, 0.2% IGEPAL, 4 C.

B1: cap2-1(A) RNA (ssRNA)
RNA: AGGGGAAGCGGGCAUGCGGCCAGCCA
modifications: m7Gppp-ApGm (2'-O-Me at nt 2 only)
Consider B1, for which the binding result in series [1] is listed as “binds”.

B2: cap0(A) RNA (ssRNA)
RNA: AGGGGAAGCGGGCAUGCGGCCAGCCA
modifications: m7Gppp-A
B2: the binding result in series [2] is “binds”.

B3: cap2(A) RNA (ssRNA)
RNA: AGGGGAAGCGGGCAUGCGGCCAGCCA
modifications: m7Gppp-AmpGm (2'-O-Me at nt 1 and 2)
B3: the binding result in series [1] is on record as “binds”.

B4: cap2-1(m6A) RNA (ssRNA)
RNA: AGGGGAAGCGGGCAUGCGGCCAGCCA
modifications: m7Gppp-m6ApGm
For the molecule B4, in series [3], the binding result is listed as “binds”.

B5: cap1(A) RNA (ssRNA)
RNA: AGGGGAAGCGGGCAUGCGGCCAGCCA
modifications: m7Gppp-Am (2'-O-Me at nt 1)
Consider B5, for which, in series [1], the binding result was “binds”.
